Data: patent US20130035289A1, “PHARMACEUTICAL COMPOSITION FOR TREATMENT OF THROMBOSIS-RELATED DISEASES COMPRISING A FRAGMENT OF PROLACTIN (PRL)-GROWTH HORMONE (GH)-PLACENTAL LACTOGEN (PL)-FAMILY PROTEIN” (UNIVERSITE DE LIEGE, priority 2010, published 2013)

T1: PAI-1 (Mus musculus, UniProt P22777)
T1 construct: from tissue; host or cells: BalbC Njrj mice, in vivo (blood)
T1 sequence (P22777 23-402): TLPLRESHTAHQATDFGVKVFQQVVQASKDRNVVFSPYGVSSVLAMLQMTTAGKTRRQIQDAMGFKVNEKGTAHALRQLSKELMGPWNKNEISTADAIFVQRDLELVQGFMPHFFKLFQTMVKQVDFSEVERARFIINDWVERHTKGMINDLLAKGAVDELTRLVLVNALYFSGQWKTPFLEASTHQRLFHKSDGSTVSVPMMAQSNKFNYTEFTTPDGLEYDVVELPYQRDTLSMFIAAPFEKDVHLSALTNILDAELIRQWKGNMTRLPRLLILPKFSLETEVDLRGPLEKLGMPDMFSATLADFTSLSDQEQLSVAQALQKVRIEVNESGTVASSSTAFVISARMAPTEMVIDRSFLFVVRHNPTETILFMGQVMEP


Columns and labels:
[1] = molecular target: T2, PAI-1 (Homo sapiens, UniProt P05121); experiment: Inhibition of PAI-1 anti-proteolytic activity, uPA/plasminogen chromogenic (colorimetric) assay; type: biochemical; settings: uPA, bovine plasminogen, PAI-1, absorbance 405 nm
T2 construct: gift of Pr; P. Declerck
T2 sequence (P05121 24-402): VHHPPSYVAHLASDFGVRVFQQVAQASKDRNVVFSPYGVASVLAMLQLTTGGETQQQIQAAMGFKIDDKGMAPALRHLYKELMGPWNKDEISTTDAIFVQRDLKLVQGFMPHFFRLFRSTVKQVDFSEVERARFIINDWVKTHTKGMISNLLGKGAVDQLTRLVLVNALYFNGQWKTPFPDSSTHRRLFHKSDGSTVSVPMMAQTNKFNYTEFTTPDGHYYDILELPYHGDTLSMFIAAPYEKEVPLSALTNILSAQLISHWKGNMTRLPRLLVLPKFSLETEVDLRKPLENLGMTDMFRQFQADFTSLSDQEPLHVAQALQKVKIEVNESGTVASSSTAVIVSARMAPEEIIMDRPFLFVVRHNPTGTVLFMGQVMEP
Description: The main physiological function of PAI-1 is to inhibit uPA and tPA proteolytic activity. […] A chromogenic substrate for plasmin (Spectrozyme PL: 0.5 mM. American Diagnostica INC) in PBS was added to the mixture in 96-well microtitration plates and kept at room temperature. The release of free p-nitro-aniline from the chromogenic substrate was measured spectrophotometrically. The activity of plasmin was determined as the absorbance at 405 nm.

[2] = molecular target: T3, PAI-1/tPA complex (Homo sapiens, UniProt P05121); experiment: Complex formation between PAI-1 and tPA by SDS-PAGE (silver staining); type: biochemical; settings: PAI-1 pre-incubated 10 min at 37° C. with 16K hPRL (5 μg) or 14K hGH (4 μg), then tPA
T3 construct: purchased Calbiochem (tPA); PAI-1 a gift of Pr; P. Declerck
T3 sequence (P05121 24-402, one chain of several): as the sequence (P05121 24-402) above
Description: tPA/PAI-1 complex was formed 10 min after their incubation at 37° C. Pre-incubation of PAI-1 (4 μg) with 16K hPRL (5 μg) or 14K hGH (4 μg) during 10 min at 37° C., followed by a second 10 min incubation with tPA (2 μg) was stopped by the addition of sample buffer containing 5% β-Mercaptoethanol. Samples are heated at 95° C. before being analysed by SDS-PAGE. Silver staining was performed on the gel to visualize protein bands and complexes.

[3] = molecular target: T1, PAI-1; experiment: Co-immunoprecipitation with anti-PAI-1 antibody and Western blot, mouse PAI-1; type: binding; settings: for interaction with PAI-1 in plasma samples: mouse plasma
Description: The interaction was further confirmed by pull-down affinity assays. For the immunoprecipitation 4 μg of recombinant 16K hPRL or 14 hGH were mixed with 3 μg of recombinant wt PAI-1, 500 μl of conditioned media from HUVEC cells, 300 μl of human plasma or 100 μl of mouse plasma. The mixtures were incubated for 10 min at 37° C. 6 μg of mouse monoclonal antibody against PAI-1 (clone 33H1F7, recognize human and mouse PAI-1) was added to each tube and incubated overnight at 4° C. under rotation. For the experiments with mice expressing 16K hPRL, 300 μl of plasma from mice injected with Null-Ad or 16K-Ad adenovirus were collected 5 days after virus injection, and immunoprecipitation was performed as described above with same PAI-1 monoclonal antibody (33H1F7). Fifty microliters of protein A agarose was added to the mix and incubated overnight at 4° C. under rotation. After centrifugation for 1 min at 6000 rpm the supernatants were discarded and the pellets (containing the beads) were washed 5 times with PBS. After a new centrifugation, the beads were resuspended in 30 μl 1×β-mercaptoethanol loading buffer and boiled at 100° C. for 5 min, then left on ice for 5 min. The beads were centrifuged for 5 min at 4° C., then the supernatants were subjected to SDS-PAGE (12% acrylamide) for Western blot analysis.
For Western Blot Analysis cytoplasmic cell lysate, samples of different CoIP and mouse plasma were separated by SDS-PAGE (12% and 10%) and transferred to a polyvinylidene fluoride membrane (Milipore Corp., Bedford, Mass.). Blots were blocked overnight with 5% milk in Tris-buffered saline with 0.1% Tween 20 and probed for 1 h at RT with primary antibodies: rabbit polyclonal anti-hPRL (DAKO) or rabbit polyclonal anti hGH (home made). After three washes with Tris-buffered saline containing 0.1% Tween 20, antigen-antibody complexes were detected with peroxidase-conjugated goat anti-rabbit secondary antibody and an enhanced fluoro-chemiluminescent system (ECL-plus; Amersham Biosciences, Arlington Heights, Ill.).

[4] = molecular target: T4, uPA (Homo sapiens, UniProt P00749+P05121); experiment: Double immunofluorescence staining on HUVEC, co-localization with uPA; type: cell-based; settings: non permeabilized, 160 ng/ml
T4 construct: endogenous in cells; host or cells: HUVEC
Description: HUVEC were grown to 70% on gelatin-coated 35 mm dishes. After incubation at 37° C. with 14K hGH (160 ng/ml) or 16K hPRL (160 ng/ml), cells were washed with PBS at room temperature, non permeabilized and incubated for 1 hr at room temperature with mouse anti uPA (American Diagnostica INC. Greenwich, Conn.) 1/100, Rabbit anti Prolactin (Dako) 1/100 or rabbit anti human GH (home made) 1/100. Endothelial cells were washed in PBS and incubated with FITC horse anti mouse antibody (Vector Laboratory) and Texas Red Goat anti rabbit (Jackson Laboratory).
HUVECs were grown to 70% confluence on gelatin-coated 35-mm dishes. After incubation for 3 h with 14K GH (160 ng/ml) or 16K PRL (160 ng/ml), the cells were washed with PBS at room temperature and incubated for 1 h at room temperature under non-permeabilization conditions with mouse anti uPA (American Diagnostica INC) diluted 1/100, rabbit anti prolactin (Dako) diluted 1/100, or rabbit anti human GH (home made) diluted 1/100. Endothelial cells were washed in PBS and incubated with FITC horse anti mouse (Vector Laboratory) and Texas red goat anti rabbit antibodies (Jackson Laboratory). […] After 3 washes in PBS for 10 min, the slides were covered with coverslips in mounting medium (Victor Laboratories Inc.) and analyzed by fluorescence microscopy.

[5] = system: ABAE cells; experiment: Endothelial cell migration (wound assay); type: cell-based, bovine; settings: for anti-migratory function: down-regulation of PAI-1 expression by si-RNA
Description: A layer of confluent ABAE cells in a 48-well tissue culture dish coated with 0.2% gelatin was wounded with a head of 200-μl tips. The experiment was performed in the presence of 50 ng/ml VEGF and 10 ng/ml bFGF. […] ID NO: 35); PAI-1 […] ID NO: 36).

[6] = PAI-1 si-RNA transfected cells plus added human PAI-1
[7] = recombinant wild type PAI-1 added to culture medium

Row | Molecule | inhibition of PAI-1 function to inhibit uPA and tPA proteolytic activity [1] | PAI-1/tPA complex formation [2] | interaction with PAI-1 in plasma samples [3] | co-localization with uPA [4] | anti-migratory effect [5, 6] | anti-migratory function [5] | anti-migratory effect [5, 7] | complex with endogenous murine PAI-1 in circulation ([3]; plasma of wild type mice 5 days after 16K-Ad injection)
1 | 14K hGH: 14K N-terminal fragment of human growth hormone, recombinant, produced and purified from E. coli (protein) MFPTIPLSRLFDNAMLRAHRLHQLAFDTYQEFEEAYIPKEQKYSFLQNPQTSLSFSESIPTPSNREETQQKSNLELLRISLLLIQSWLEPVQFLRSVFANSLVYGASDSNVYDLLKDLEEGIQTLMGRLEDGSP | significantly inhibited | completely abolished | interaction was also demonstrated | co-localised at the cell surface | restored | reduced significantly | reduced significantly | –
2 | 16K hPRL: 16K N-terminal human prolactin fragment, recombinant, produced and purified from E. coli (protein) LPICPGGAARCQVTLRDLFDRAVVLSHYIHNLSSEMFSEFDKRYTHGRGFITKAINSCHTSSLATPEDKEQAQQMNQKDFLSLIVSILRSWNEPLYHLVTEVRGMQEAPEAILSKAVEIEEQTKRLLEGMELIVSQVHP | significantly inhibited | partially inhibit | interaction was also demonstrated | co-localised at the cell surface | restored | reduced significantly | reduced significantly | complex formation
